The series concerns NCI-H460 tumor-bearing mice (lung cancer). Nature of the series: Biodistribution: lutetium accumulation in tumor, plasma and healthy tissues by ICP-MS. The note with it: 24 h; for Kidney uptake, % ID/g 24 h / Liver uptake, % ID/g 24 h / Plasma, % ID/g 24 h / Tumor uptake, % ID/g, 24 h: second table. It is filed as in vivo. The protocol:
Lutetium accumulation was measured in tumor, plasma and healthy tissues of NCI-H460 tumor-bearing mice (lung cancer). NCJ-H460 tumor bearing mice were dosed with 0.5 mg/kg of lutetium conjugates. At the time points indicated, mice were sacrificed and tumor, liver, kidneys and plasma were taken. All tissues were analyzed for lutetium content by ICP-MS, and lutetium uptake in % ID/g determined by the following equation: […]
Biodistribution at 24 h and Tumor/Kidney ratio (T/K), Tumor/Liver ratio (T/L), Tumor/Plasma ratio (T/P) are give in the table below.

On to `CCNC(=O)c1nnc(-c2cc(C(C)C)c(O)cc2O)n1-c1ccc(C2CN(C(=O)CCOCCOCCOCCOCCNC(=O)CN3CCN4CCN5CCN(CC3)CC(=O)[O][Lu]([O]C(=O)C4)[O]C(=O)C5)C2)cc1` [CMP29], for which the “T/K (Tumor/Kidney ratio)” value came out at 2.19; the “T/L (Tumor/Liver ratio)” value is reported as 2.23; the “T/P (Tumor/Plasma ratio)” value was determined as 4.08; the “Kidney uptake, % ID/g 24 h” value stood at 1.12 % ID/g. Further, the “Liver uptake, % ID/g 24 h” value came out at 1.10 % ID/g; the “Plasma, % ID/g 24 h” value is 0.60 % ID/g; the “Tumor uptake, % ID/g, 24 h” value worked out at 2.45 % ID/g.

In the case of `CC(C)c1cc(-c2nnc(O)n2-c2ccc(OC3CCN(C(=O)CCOCCOCCOCCOCCNC(=O)CN4CCN5CCN6CCN(CC4)CC(=O)[O][Lu]([O]C(=O)C5)[O]C(=O)C6)CC3)cc2)c(O)cc1O` [CMP40], the “T/K (Tumor/Kidney ratio)” value was determined as 5.08; the “T/L (Tumor/Liver ratio)” value is given as 62.28; the “T/P (Tumor/Plasma ratio)” value is recorded as 29.23; the “Kidney uptake, % ID/g 24 h” value is 0.14 % ID/g. The “Liver uptake, % ID/g 24 h” value is reported as 0.01 % ID/g; the “Plasma, % ID/g 24 h” value is 0.02 % ID/g; the “Tumor uptake, % ID/g, 24 h” value came out at 0.71 % ID/g.

As to `CCNC(=O)c1nnc(-c2cc(C(C)C)c(O)cc2O)n1-c1ccc(CN2CCN(C(=O)CCOCCOCCOCCOCCNC(=O)CN3CCN4CCN5CCN6CC(=O)O[C]6(C3)[Lu]([O]C(=O)C4)[O]C(=O)C5)CC2)cc1` (stereo not drawn) [CMP1], the “T/K (Tumor/Kidney ratio)” value was 1.28; the “T/L (Tumor/Liver ratio)” value is 1.92; the “T/P (Tumor/Plasma ratio)” value is on record as 7.68; the “Kidney uptake, % ID/g 24 h” value turned out to be 0.91 % ID/g. In addition, the “Liver uptake, % ID/g 24 h” value was 0.607 % ID/g; the “Plasma, % ID/g 24 h” value came out at 0.152 % ID/g; the “Tumor uptake, % ID/g, 24 h” value is reported as 1.167 % ID/g.

For `CCNC(=O)c1nnc(-c2cc(C(C)C)c(O)cc2O)n1-c1ccc(OC2CCN(C(=O)CCOCCOCCOCCOCCNC(=O)CC[C@@H](C(=O)O)N(CC)CCN3CCN4CCN(C)CC(=O)[O][Lu]([O]C(=O)C4)[O]C(=O)C3)CC2)cc1` [CMP2], the “T/K (Tumor/Kidney ratio)” value turned out to be 2.12; the “T/L (Tumor/Liver ratio)” value came to 1.98; the “T/P (Tumor/Plasma ratio)” value was found to be 2.51; the “Kidney uptake, % ID/g 24 h” value is reported as 0.438 % ID/g. Besides, the “Liver uptake, % ID/g 24 h” value amounted to 0.469 % ID/g; the “Plasma, % ID/g 24 h” value turned out to be 0.369 % ID/g; the “Tumor uptake, % ID/g, 24 h” value is 0.927 % ID/g.

As for `CCNC(=O)c1nnc(-c2cc(C(C)C)c(O)cc2O)n1-c1ccc(CC2CCN(C(=O)CCOCCOCCOCCOCCOCCOCCOCCOCCOCCOCCOCCOCCNC(=O)CN3CCN4CCN5CCN(CC3)CC(=O)[O][Lu]([O]C(=O)C4)[O]C(=O)C5)CC2)cc1` [CMP34], the “T/K (Tumor/Kidney ratio)” value is 3.96; the “T/L (Tumor/Liver ratio)” value was 3.06; the “T/P (Tumor/Plasma ratio)” value came out at 5.54; the “Kidney uptake, % ID/g 24 h” value worked out at 1.12 % ID/g. In addition, the “Liver uptake, % ID/g 24 h” value was 1.45 % ID/g; the “Plasma, % ID/g 24 h” value is given as 0.80 % ID/g; the “Tumor uptake, % ID/g, 24 h” value was found to be 4.43 % ID/g.

With `CCNC(=O)c1nnc(-c2cc(C(C)C)c(O)cc2O)n1-c1ccc(CC2CCN(C(=O)CCOCCOCCOCCOCCNC(=O)CN3CCN4CCN5CCN(CC3)CC(=O)[O][Lu]([O]C(=O)C4)[O]C(=O)C5)CC2)cc1` [CMP31], the “T/K (Tumor/Kidney ratio)” value was 5.00; the “T/L (Tumor/Liver ratio)” value stood at 2.30; the “T/P (Tumor/Plasma ratio)” value is 5.19; the “Kidney uptake, % ID/g 24 h” value worked out at 0.84 % ID/g. For the same compound, the “Liver uptake, % ID/g 24 h” value is given as 1.83 % ID/g; the “Plasma, % ID/g 24 h” value is given as 0.81 % ID/g; the “Tumor uptake, % ID/g, 24 h” value worked out at 4.20 % ID/g.

These data come from US20260166158A1, “HSP90-BINDING CONJUGATES AND FORMULATIONS THEREOF” (Fusion Pharmaceuticals Inc., priority 2019, published 2026).
